Biological target: 3M2e-ferritin nanoparticle (three copies of M2e of H1N1 influenza virus fused to the N terminus of H. pylori ferritin) (influenza A virus H1N1 | Helicobacter pylori)
Test: native gel or EMSA

3M2e-ferritin nanoparticle (three copies of M2e of H1N1 influenza virus fused to the N terminus of H. pylori ferritin)
stoichiometry N: 24

From paper PMC10269571
